The values that follow come from patent US20200088729.

What all share (experiment): SPR
(In general: Surface plasmon resonance follows binding to a sensor surface in real time, without labels.)

The target of one data set is EED (UniProt O75530). To be noted: HBS-EP+, 3.25 mM MgCl2, 25 C.
The next data set deals with EZH2 (UniProt Q15910). To be noted: HBS-EP+, 3.25 mM MgCl2, 25 C.
Another data set deals with PTBP1 (UniProt P26599). Particulars: HBS-EP+, 3.25 mM MgCl2, 25 C.
A further data set deals with SUZ12 (UniProt Q15022). Particulars: HBS-EP+, 3.25 mM MgCl2, 25 C.
Chain of SUZ12 (Q15022 whole entry): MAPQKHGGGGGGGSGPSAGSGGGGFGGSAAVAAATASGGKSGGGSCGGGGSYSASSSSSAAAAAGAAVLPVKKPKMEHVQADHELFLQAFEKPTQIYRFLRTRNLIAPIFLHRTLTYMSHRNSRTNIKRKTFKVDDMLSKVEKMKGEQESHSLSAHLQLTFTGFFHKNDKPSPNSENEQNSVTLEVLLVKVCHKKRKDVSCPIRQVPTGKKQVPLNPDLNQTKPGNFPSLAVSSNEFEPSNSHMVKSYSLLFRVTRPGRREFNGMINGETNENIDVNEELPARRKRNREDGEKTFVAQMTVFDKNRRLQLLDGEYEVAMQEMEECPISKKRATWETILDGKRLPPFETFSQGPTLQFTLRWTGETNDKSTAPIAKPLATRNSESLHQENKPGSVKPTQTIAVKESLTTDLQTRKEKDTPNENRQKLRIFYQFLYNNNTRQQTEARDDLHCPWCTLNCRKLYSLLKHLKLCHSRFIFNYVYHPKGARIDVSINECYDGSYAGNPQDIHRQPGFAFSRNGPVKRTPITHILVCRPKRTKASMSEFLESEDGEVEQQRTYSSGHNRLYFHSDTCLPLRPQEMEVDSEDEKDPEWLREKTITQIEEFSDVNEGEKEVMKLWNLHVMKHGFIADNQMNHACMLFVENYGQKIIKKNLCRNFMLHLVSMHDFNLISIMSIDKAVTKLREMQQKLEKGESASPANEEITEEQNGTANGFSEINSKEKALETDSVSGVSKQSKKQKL
For data set [1], the target named is T1, HaloTag-DasherGFP-3xLambdaN-V5 (synthetic construct (lambda phage N peptide)) (UniProt P03045).
T1 sequence: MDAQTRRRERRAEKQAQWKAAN
To be noted: ka 29700 1/Ms, kd 0.0012 1/s; HBS-EP+, 3.25 mM MgCl2, 25 C.

Chain of PTBP1 (P26599 whole entry): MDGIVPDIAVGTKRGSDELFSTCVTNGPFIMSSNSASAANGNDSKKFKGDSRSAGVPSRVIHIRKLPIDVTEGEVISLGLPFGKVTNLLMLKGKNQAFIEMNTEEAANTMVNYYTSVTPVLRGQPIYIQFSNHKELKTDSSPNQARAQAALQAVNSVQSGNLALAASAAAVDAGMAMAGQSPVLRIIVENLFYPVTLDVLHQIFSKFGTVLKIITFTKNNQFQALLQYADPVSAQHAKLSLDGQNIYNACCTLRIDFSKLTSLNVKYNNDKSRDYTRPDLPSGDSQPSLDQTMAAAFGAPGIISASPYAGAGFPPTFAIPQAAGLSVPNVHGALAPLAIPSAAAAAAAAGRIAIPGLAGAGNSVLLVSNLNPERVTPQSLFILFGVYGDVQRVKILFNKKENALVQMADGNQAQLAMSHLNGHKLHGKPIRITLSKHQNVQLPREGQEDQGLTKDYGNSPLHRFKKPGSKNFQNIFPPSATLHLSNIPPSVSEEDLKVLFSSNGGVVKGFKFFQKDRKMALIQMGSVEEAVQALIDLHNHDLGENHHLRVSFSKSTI
Chain of EED (O75530 whole entry): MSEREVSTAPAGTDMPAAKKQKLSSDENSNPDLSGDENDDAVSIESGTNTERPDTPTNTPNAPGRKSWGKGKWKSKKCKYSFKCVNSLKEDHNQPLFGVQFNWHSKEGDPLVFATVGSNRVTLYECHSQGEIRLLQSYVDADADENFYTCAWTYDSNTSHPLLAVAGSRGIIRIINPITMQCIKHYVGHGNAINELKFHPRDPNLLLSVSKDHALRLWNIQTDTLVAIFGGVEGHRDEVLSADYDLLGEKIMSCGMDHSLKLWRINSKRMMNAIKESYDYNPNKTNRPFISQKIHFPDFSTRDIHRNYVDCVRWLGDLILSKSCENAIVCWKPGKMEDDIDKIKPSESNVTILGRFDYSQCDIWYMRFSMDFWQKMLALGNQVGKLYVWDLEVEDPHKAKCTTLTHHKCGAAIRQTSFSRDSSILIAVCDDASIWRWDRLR
Chain of EZH2 (Q15910 whole entry): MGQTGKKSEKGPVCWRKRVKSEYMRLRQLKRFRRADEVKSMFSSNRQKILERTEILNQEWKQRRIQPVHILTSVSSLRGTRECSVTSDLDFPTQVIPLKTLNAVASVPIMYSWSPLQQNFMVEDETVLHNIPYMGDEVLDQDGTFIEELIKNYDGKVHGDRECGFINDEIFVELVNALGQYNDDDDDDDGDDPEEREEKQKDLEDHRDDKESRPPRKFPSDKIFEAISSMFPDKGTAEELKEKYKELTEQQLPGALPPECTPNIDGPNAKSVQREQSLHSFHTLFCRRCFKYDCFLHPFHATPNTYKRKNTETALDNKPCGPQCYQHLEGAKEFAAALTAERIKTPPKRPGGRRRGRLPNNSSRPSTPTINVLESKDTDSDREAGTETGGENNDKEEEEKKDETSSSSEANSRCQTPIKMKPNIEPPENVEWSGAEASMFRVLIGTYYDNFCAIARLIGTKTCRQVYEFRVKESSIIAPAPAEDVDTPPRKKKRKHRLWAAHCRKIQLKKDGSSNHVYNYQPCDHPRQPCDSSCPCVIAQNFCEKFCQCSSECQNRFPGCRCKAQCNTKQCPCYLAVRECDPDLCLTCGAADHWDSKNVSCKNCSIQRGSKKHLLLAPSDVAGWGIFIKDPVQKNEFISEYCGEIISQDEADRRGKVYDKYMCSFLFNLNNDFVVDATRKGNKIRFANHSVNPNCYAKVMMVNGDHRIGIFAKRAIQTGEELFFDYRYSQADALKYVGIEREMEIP

On to Xist E-repeat RNA, for which the Kd (commonly the constant that tells how readily two partners part at equilibrium) with EED is 1100 nM; with EZH2 (U-value 20) it was 13200 nM; with PTBP1 it was 59.6 nM; with SUZ12 it was 60600 nM.
Turning to MBP RNA (nt 1-240), the Kd was 1630 nM with EED, 58100 nM in the data set with EZH2, 8680 nM with PTBP1 (U-value 20) and 1350 nM with SUZ12.
Take Xist A-repeat RNA: the Kd in the data set with EED came out at 257 nM; in the data set with EZH2, 56000 nM; with PTBP1, 261 nM; in the data set with SUZ12 (U-value 26 flagged with asterisk (poor fit)), 1790 nM.
On to MBP-5xBoxB RNA, for which the Kd in the data set with EED (U-value 20) was determined as 2940 nM; in the data set with EZH2 it was 66000 nM; in data set [1], 39.3 nM; with PTBP1 it was 104 nM; with SUZ12, 96600 nM.
